Results as given in US20260355338 (published 2026).
Substitutions are numbered along the chain they refer to.

T1: human EpCAM-mFc (human)
T1 chain: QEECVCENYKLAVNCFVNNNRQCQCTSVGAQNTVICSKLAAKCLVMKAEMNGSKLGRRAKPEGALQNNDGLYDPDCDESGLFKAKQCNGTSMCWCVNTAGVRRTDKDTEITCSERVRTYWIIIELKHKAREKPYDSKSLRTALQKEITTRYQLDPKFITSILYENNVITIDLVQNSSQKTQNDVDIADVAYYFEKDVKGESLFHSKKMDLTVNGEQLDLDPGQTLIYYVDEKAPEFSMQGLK

T2: EpCAM on HSC2 cells (human, UniProt P16422)
T2 chain: T1 chain

B1: EP107-2-3014 (1361-H) (antibody)
chain 1: QVQLVQSGAEVKKPGASVKVSCKASGYTFTNYHIHWVRQAPGQRLEYIGWIYPGNVYIQYNEKFKGRATLTADKSASTAYMELSSLRSEDTAVYYCARDGPWFAYWGQGTLVTVSS
chain 2: QGQSGQGSHPCSYMHPYCFYNSGGGSSGGAVGLLAPPGGLSGRSDNIGGSDIVLTQTPLSLSVTPGQPASISCRSSRSLLHSDGFTYLYWFLQKPGQSPQLLIYQTSNLASGVPDRFSSSGSGTDFTLKISRVEAEDVGVYYCAQNLELPNTFGQGTKLEIK
B2: EP106-3014 (1361-H) (antibody)
chain 1: B1 chain 1
chain 2: QGQSGQGFCSGYSPSVLPSCLMGGGSSGGAVGLLAPPGGLSGRSDNIGGSDIVLTQTPLSLSVTPGQPASISCRSSRSLLHSDGFTYLYWFLQKPGQSPQLLIYQTSNLASGVPDRFSSSGSGTDFTLKISRVEAEDVGVYYCAQNLELPNTFGQGTKLEIK
B3: EP104-3014 (1565-Y) (antibody)
chain 1: B1 chain 1 with H33Y, P101Y
chain 2: QGQSGQGTTRCEHYWFTCPLSPGGGSSGGAVGLLAPPGGLSGRSDNIGGSDIVLTQTPLSLSVTPGQPASISCRSSRSLLHSDGFTYLYWFLQKPGQSPQLLIYQTSNLASGVPDRFSSSGSGTDFTLKISRVEAEDVGVYYCAQNLELPNTFGQGTKLEIK
B4: EP02-3014 (1361-H) (antibody)
chain 1: B1 chain 1
chain 2: QGQSGQGLSCTHSRYDMHCPHMGGGSSGGAVGLLAPPGGLSGRSDNIGGSDIVLTQTPLSLSVTPGQPASISCRSSRSLLHSDGFTYLYWFLQKPGQSPQLLIYQTSNLASGVPDRFSSSGSGTDFTLKISRVEAEDVGVYYCAQNLELPNTFGQGTKLEIK
B5: EP110-3014 (1361-H) (antibody)
chain 1: B1 chain 1
chain 2: QGQSGQGPRPHCAILRQCLAATGGGSSGGAVGLLAPPGGLSGRSDNIGGSDIVLTQTPLSLSVTPGQPASISCRSSRSLLHSDGFTYLYWFLQKPGQSPQLLIYQTSNLASGVPDRFSSSGSGTDFTLKISRVEAEDVGVYYCAQNLELPNTFGQGTKLEIK
B6: EP03-3014 (1361-H) (antibody)
chain 1: B1 chain 1
chain 2: QGQSGQGHYCHSRTDTITHCNAGGGSSGGAVGLLAPPGGLSGRSDNIGGSDIVLTQTPLSLSVTPGQPASISCRSSRSLLHSDGFTYLYWFLQKPGQSPQLLIYQTSNLASGVPDRFSSSGSGTDFTLKISRVEAEDVGVYYCAQNLELPNTFGQGTKLEIK
B7: EP107-1-3014 (1361-H) (antibody)
chain 1: B1 chain 1
chain 2: B1 chain 2 with H9R
B8: EP05-3014 (1565-Y) (antibody)
chain 1: B1 chain 1 with H33Y, P101Y
chain 2: QGQSGQGWWPPCQGGAWCEQRIGGGSSGGAVGLLAPPGGLSGRSDNIGGSDIVLTQTPLSLSVTPGQPASISCRSSRSLLHSDGFTYLYWFLQKPGQSPQLLIYQTSNLASGVPDRFSSSGSGTDFTLKISRVEAEDVGVYYCAQNLELPNTFGQGTKLEIK
B9: EP11-3014 (1361-H) (antibody)
chain 1: B1 chain 1
chain 2: QGQSGQGFICPTLYDRPHCMHTGGGSSGGAVGLLAPPGGLSGRSDNIGGSDIVLTQTPLSLSVTPGQPASISCRSSRSLLHSDGFTYLYWFLQKPGQSPQLLIYQTSNLASGVPDRFSSSGSGTDFTLKISRVEAEDVGVYYCAQNLELPNTFGQGTKLEIK
B10: EP02-3014 (1565-Y) (antibody)
chain 1: B1 chain 1 with H33Y, P101Y
chain 2: B4 chain 2
B11: EP108-3014 (1361-H) (antibody)
chain 1: B1 chain 1
chain 2: B1 chain 2 with S8L, H9T, P10R, S12T, Y13I, M14A, F19Y, S22Y
B12: EP105-3014 (1361-H) (antibody)
chain 1: B1 chain 1
chain 2: B2 chain 2 with F8D, S10T, S19A, L21R, M22V
B13: EP01-3014 (1361-H) (antibody)
chain 1: B1 chain 1
chain 2: QGQSGQGPLMTCSDYYTCKNNLGGGSSGGAVGLLAPPGGLSGRSDNIGGSDIVLTQTPLSLSVTPGQPASISCRSSRSLLHSDGFTYLYWFLQKPGQSPQLLIYQTSNLASGVPDRFSSSGSGTDFTLKISRVEAEDVGVYYCAQNLELPNTFGQGTKLEIK
B14: EP103-3014 (1565-Y) (antibody)
chain 1: B1 chain 1 with H33Y, P101Y
chain 2: B4 chain 2 with L8M, T11V, H12V, S13D, Y15F, M17R, H18Q, M22L
B15: EP07-3014 (1361-H) (antibody)
chain 1: B1 chain 1
chain 2: QGQSGQGHSGCPRLFDRCSAPAGGGSSGGAVGLLAPPGGLSGRSDNIGGSDIVLTQTPLSLSVTPGQPASISCRSSRSLLHSDGFTYLYWFLQKPGQSPQLLIYQTSNLASGVPDRFSSSGSGTDFTLKISRVEAEDVGVYYCAQNLELPNTFGQGTKLEIK
B16: EP04-3014 (1361-H) (antibody)
chain 1: B1 chain 1
chain 2: QGQSGQGWCPRLFDRPSMGCPTGGGSSGGAVGLLAPPGGLSGRSDNIGGSDIVLTQTPLSLSVTPGQPASISCRSSRSLLHSDGFTYLYWFLQKPGQSPQLLIYQTSNLASGVPDRFSSSGSGTDFTLKISRVEAEDVGVYYCAQNLELPNTFGQGTKLEIK
B17: EP07-3014 (1565-Y) (antibody)
chain 1: B1 chain 1 with H33Y, P101Y
chain 2: B15 chain 2
B18: EP107-3014 (1361-H) (antibody)
chain 1: B1 chain 1
chain 2: B1 chain 2 with H9K
B19: muEpCAM23 (antibody, V domains shown)
VH: EVKLEESGPALVKPGASVRISCKASGYTFTNYYIHWVKQRPGQGLDYIGWIYPGNVYIQYNEKFKGKATLTADKSSSTAFMQLSSLTSEDSAVYFCARDGPWFAYWGQGTLVTVSS
VL: DIVLTQTPFSNPVTLGTSASISCRSSKSLLHSDGFTYLYWFLQKPGQSPHLLIYQTSNLASGVPDRFSSSGSGTDFTLRISRVEAEDVGVYYCAQNLELPNTFGGGTKLEIK

Target: T1, human EpCAM-mFc
Assay: ELISA

Binder	Kd [nM]
B1	44
B2	348
B3	126
B4	0.44
B5	336
B6	4
B7	31
B8	8.6
B9	30.5
B10	34.5
B11	58
B12	201
B13	18.2
B14	140
B15	1.5
B16	1.9
B17	37.6
B18	147

Target: T2, EpCAM on HSC2 cells
Assay: FACS, HSC2 cells, apparent, low end of range

Binder	Kd [nM]
B19	0.38

Target: T2, EpCAM on HSC2 cells
Assay: FACS, HSC2 cells, apparent, high end of range

Binder	Kd [nM]
B19	0.79
